Laboratory results reported in publication PMC3383723.

Biological target: T1, Vps41-TAP (yeast), P38959
T1 chain: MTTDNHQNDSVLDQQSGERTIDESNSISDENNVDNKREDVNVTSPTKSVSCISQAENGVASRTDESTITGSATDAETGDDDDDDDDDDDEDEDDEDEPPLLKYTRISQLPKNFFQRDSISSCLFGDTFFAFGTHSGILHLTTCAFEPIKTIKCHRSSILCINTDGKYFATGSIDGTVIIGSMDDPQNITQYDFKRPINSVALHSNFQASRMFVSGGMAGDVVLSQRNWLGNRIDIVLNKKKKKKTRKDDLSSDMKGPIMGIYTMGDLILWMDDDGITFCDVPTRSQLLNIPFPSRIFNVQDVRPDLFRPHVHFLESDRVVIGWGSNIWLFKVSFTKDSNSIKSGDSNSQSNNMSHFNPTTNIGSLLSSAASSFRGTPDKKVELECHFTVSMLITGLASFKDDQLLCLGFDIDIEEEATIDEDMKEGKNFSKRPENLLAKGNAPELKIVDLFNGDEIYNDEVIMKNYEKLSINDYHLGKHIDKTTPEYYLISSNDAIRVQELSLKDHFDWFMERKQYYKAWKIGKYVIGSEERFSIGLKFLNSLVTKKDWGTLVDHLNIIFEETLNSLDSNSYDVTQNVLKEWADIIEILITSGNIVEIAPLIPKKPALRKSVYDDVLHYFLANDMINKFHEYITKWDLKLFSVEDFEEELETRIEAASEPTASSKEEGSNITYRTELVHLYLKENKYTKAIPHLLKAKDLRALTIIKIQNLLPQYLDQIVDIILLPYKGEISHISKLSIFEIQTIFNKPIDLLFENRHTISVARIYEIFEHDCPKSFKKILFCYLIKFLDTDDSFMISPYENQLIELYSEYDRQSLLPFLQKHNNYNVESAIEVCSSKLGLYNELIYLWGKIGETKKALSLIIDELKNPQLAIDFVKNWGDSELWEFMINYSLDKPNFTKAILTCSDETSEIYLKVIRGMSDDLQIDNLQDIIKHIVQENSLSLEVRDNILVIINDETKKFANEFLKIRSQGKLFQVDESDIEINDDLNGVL
Test: co-IP
Conditions: remark: other sources report otherwise

B1: Vps39, Q07468 1-1049 (natural protein)
chain: MLRAQKLHSLKSSDITAILPTEQSQKLVLAKKNGDVEVYSRDGNTLKLFQVYPDLLQNAKNDPLPPVIENFYFANELSTIFAQCKETLILLSTTNLHEYDRIIDRRGINHCWLFERSHKNKEEKNTYLIYSTINTAKMRVLIWEGRTYKNMMEASLSYRKETIRSIYPGETGITLATDLGIYHWPYNKPSLIRIEKTVKNKFPKDMISALTELKEQAEKVIEKKPKKNSHFDAQSFSSMDRMSRKSSMSSLWYRTIRNERGNKIRYTFELDGNDATPMIIDGATKKIFKVELMHNNEEPFLIATDHATFSESNSEFDHMQYLSSNLLMLYNSSTIKFVDYENGFTFLQQKIPEGIKWVKNLSGTYFLVWTSNDEVQLFSYHVDDGSEDDDQESICGDINDPDFYQLWRKVLFYKFFIDSPHSKELCVSDNPEESLDICAMKLRDLTVMWCLRIFDKFQNYMVQLERSRNSRMIRSKCEEMIIKSIFDLFIKFWAPPQLVILKVFPSAISSLVLEITGQEHHCLLKEAEEVKETYDIPPHLLNRWCLPYLTDTRRHLQNLLSKENDDESRITWCYRDREIKQSFDFFLISNHDDVDLNTMLTLIDTVLFKCYLYYNPPMVGPFIRVENHCDSHVIVTELKIRHMFKDLIDFYYKRGNHEEALKFLTDLVDELENDNTDQKQRQKIDHGVKILVIYYLKKLSNPQLDVIFTYTDWLLNRHNDSIKEILSSIFFYDSQACSSRDHLKVYGYIKKFDKLLAIQYLEFAISTFRLEGNKLHTVLIKLYLENLDIPSTRIKLKSLLETTSVYEPRTILKLLNDAIESGSDQLPTNQLNFVKYLKIFPLSKLENHKEAVHILLDEIDDYKAATSYCNDVYQSDSTKGEELLLYLYSKLVSIYDSNRNSKLILNFLQDHGSKLNSAEIYKNLPQDISLYDIGRVVSQLLKKHTSKMDETRLEKALLQVELVATTYKLNERMSSYGVLSDSHKCPICKKVISNFGTDSISWFTREGRNIITHYNCGKVLQERFNAKNEKSSRIKQKTLGEVINELNNK
How did the co-precipitation efficiency relative to that of Vps41-HA turn out when B1 was run?
The co-precipitation efficiency relative to that of Vps41-HA was 2 fold.
